Holding throughout (assay type): biochemical
Data set [1] is described as follows: HTP-analysis of supernatants pretreated with base (MUGal hydrolysis). Conditions: activity of the variant/activity of Rd3BB (SEQ ID NO: 13); challenge at pH 9.7. Summed up:
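Supernatants from INVSc1 yeast expressing GLA variants (SD-Ura, 66-84 h, 30° C) were mixed with McIlvaine buffer pH 7.0-8.2 or 200 mM sodium bicarbonate pH 9.1-9.7 and held 1-18 h at 37° C. Residual activity was then measured on MUGal at pH 4.8/4.3, 37° C, 30-180 min, by fluorescence (Ex 355/Em 448 nm).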

Data set [2] can be described thus: HTP-analysis of yeast culture supernatants, no challenge (MUGal hydrolysis). Conditions: activity of the variant/activity of Rd3BB (SEQ ID NO: 13). A digest of the protocol:
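GLA variants expressed in yeast INVSc1, secreted into SD-Ura broth over 66-84 h at 30° C; clarified supernatants tested without challenge. Supernatant mixed with McIlvaine buffer pH 4.8 and 2 mM MUGal (citrate/KCl, pH 4.6), 37° C for 30-180 min, carbonate-quenched, fluorescence Ex 355/Em 448 nm.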

A short description of data set [3]: HTP-analysis of supernatants pretreated with acid (MUGal hydrolysis). The note with it: activity of the variant/activity of Rd3BB (SEQ ID NO: 13); challenge at pH 3.7. A digest of the protocol: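 GLA variants were secreted from INVSc1 yeast grown 66-84 h at 30° C. in SD-Ura with 2% glucose; supernatants were mixed with McIlvaine buffer pH 3.3-4.3 and held at 37° C. for 1-3 h. Residual activity on MUGal at pH 4.8 was then measured by fluorescence.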

Where a chain is given by its changes, count along the chain named.

B1: 565 (protein)
chain: LDNGLARTPTMGWLHWERFMCNLDCQEEPDSCISEKLFMEMAERMVSEGWKDAGYEYLCIDDCWMAPQRDSEGRLQADPQRFPHGIRQLANHVHSKGLKLGIYADVGNKTCAGFPGSFGYYDIDAQTFADWGVDLLKFDGCYCDSLENLADGYKHMSLALNRTGRSIVYSCEWPLYMWPFQKPNYTEIRQYCNHWRNFADIDDSWASIKSILDWTSRNQERIVDVAGPGGWNDPDMLVIGNFGLSWDQQVTQMALWAIMAAPLFMSNDLRHISPQAKALLQDKDVIAINQDPLGKQGYQLRKGDNFEVWERPLSGDAWAVAIINRQEIGGPRSYTIPVASLGKGVACEPACFITQLLPVKRQLGFYNWTSRLKSHINPTGTVLLQLENTMQMSLKDLL
modifications: Synthetic Polypeptide sequence of Variant No. 565 of mature Human GLA
For the molecule B1, the “Relative Activity of GLA Variants After Challenge at pH 9.7” value (“Relative Activity … at pH 9.7” below) in data set [1] is reported as “++ (++ = >5 to 10 relative activity over Rd3BB (SEQ ID NO: 13))”. In addition, in data set [2], the “Relative Activity of GLA Variants After No Challenge (NC)” value is “+ (+ = 1.5 to 5 relative activity over Rd3BB (SEQ ID NO: 13))”. In data set [3], the “Relative Activity of GLA Variants After Challenge at pH 3.7” value (“Relative Activity … at pH 3.7” for short) is recorded as “+ (+ = 1.5 to 5 relative activity over Rd3BB (SEQ ID NO: 13))”.

B2: 570 (protein)
chain: B1 chain with E348N, T354S
modifications: Synthetic Polypeptide sequence of Variant No. 570 of mature Human GLA
As for B2, the “Relative Activity … at pH 9.7” value in data set [1] was “++ (++ = >5 to 10 relative activity over Rd3BB (SEQ ID NO: 13))”. Also, the “Relative Activity of GLA Variants After No Challenge (NC)” value in data set [2] is reported as “+ (+ = 1.5 to 5 relative activity over Rd3BB (SEQ ID NO: 13))”. The “Relative Activity … at pH 3.7” value in data set [3] is given as “+ (+ = 1.5 to 5 relative activity over Rd3BB (SEQ ID NO: 13))”.

B3: 567 (protein)
chain: B1 chain with E348Q
modifications: Synthetic Polypeptide sequence of Variant No. 567 of mature Human GLA
In the case of B3, the “Relative Activity … at pH 9.7” value in data set [1] was “++ (++ = >5 to 10 relative activity over Rd3BB (SEQ ID NO: 13))”. The “Relative Activity of GLA Variants After No Challenge (NC)” value in data set [2] is given as “+ (+ = 1.5 to 5 relative activity over Rd3BB (SEQ ID NO: 13))”. Moreover, in data set [3], the “Relative Activity … at pH 3.7” value is “+ (+ = 1.5 to 5 relative activity over Rd3BB (SEQ ID NO: 13))”.

B4: 574 (protein)
chain: B1 chain with S314H, E348N
modifications: Synthetic Polypeptide sequence of Variant No. 574 of mature Human GLA
Take B4: the “Relative Activity … at pH 9.7” value in data set [1] is “++ (++ = >5 to 10 relative activity over Rd3BB (SEQ ID NO: 13))”. For the same molecule, in data set [2], the “Relative Activity of GLA Variants After No Challenge (NC)” value is reported as “+ (+ = 1.5 to 5 relative activity over Rd3BB (SEQ ID NO: 13))”. The “Relative Activity … at pH 3.7” value in data set [3] was “+ (+ = 1.5 to 5 relative activity over Rd3BB (SEQ ID NO: 13))”.

B5: 566 (protein)
chain: B1 chain with E348M
modifications: Synthetic Polypeptide sequence of Variant No. 566 of mature Human GLA
Take B5: the “Relative Activity … at pH 9.7” value in data set [1] was “++ (++ = >5 to 10 relative activity over Rd3BB (SEQ ID NO: 13))”. Also, the “Relative Activity of GLA Variants After No Challenge (NC)” value in data set [2] was “+ (+ = 1.5 to 5 relative activity over Rd3BB (SEQ ID NO: 13))”. Besides, the “Relative Activity … at pH 3.7” value in data set [3] is “+ (+ = 1.5 to 5 relative activity over Rd3BB (SEQ ID NO: 13))”.

B6: 576 (protein)
chain: B1 chain with S314Y, E348N
modifications: Synthetic Polypeptide sequence of Variant No. 576 of mature Human GLA
As to B6, the “Relative Activity … at pH 9.7” value in data set [1] is recorded as “++ (++ = >5 to 10 relative activity over Rd3BB (SEQ ID NO: 13))”. In data set [2], the “Relative Activity of GLA Variants After No Challenge (NC)” value is recorded as “+ (+ = 1.5 to 5 relative activity over Rd3BB (SEQ ID NO: 13))”. Moreover, in data set [3], the “Relative Activity … at pH 3.7” value was “+ (+ = 1.5 to 5 relative activity over Rd3BB (SEQ ID NO: 13))”.

B7: 569 (protein)
chain: B1 chain with E348W
modifications: Synthetic Polypeptide sequence of Variant No. 569 of mature Human GLA
With B7, the “Relative Activity … at pH 9.7” value in data set [1] is “++ (++ = >5 to 10 relative activity over Rd3BB (SEQ ID NO: 13))”. Moreover, in data set [2], the “Relative Activity of GLA Variants After No Challenge (NC)” value is “+ (+ = 1.5 to 5 relative activity over Rd3BB (SEQ ID NO: 13))”. Besides, the “Relative Activity … at pH 3.7” value in data set [3] is on record as “+ (+ = 1.5 to 5 relative activity over Rd3BB (SEQ ID NO: 13))”.

B8: 572 (protein)
chain: B1 chain with N305L, E348N
modifications: Synthetic Polypeptide sequence of Variant No. 572 of mature Human GLA
Consider B8, for which the “Relative Activity … at pH 9.7” value in data set [1] is listed as “++ (++ = >5 to 10 relative activity over Rd3BB (SEQ ID NO: 13))”. The “Relative Activity of GLA Variants After No Challenge (NC)” value in data set [2] was “+ (+ = 1.5 to 5 relative activity over Rd3BB (SEQ ID NO: 13))”. Moreover, in data set [3], the “Relative Activity … at pH 3.7” value was “+++ (+++ = >10 relative activity over Rd3BB (SEQ ID NO: 13))”.

B9: 568 (protein)
chain: B1 chain with E348R
modifications: Synthetic Polypeptide sequence of Variant No. 568 of mature Human GLA
With B9, the “Relative Activity … at pH 9.7” value in data set [1] is recorded as “++ (++ = >5 to 10 relative activity over Rd3BB (SEQ ID NO: 13))”. For the same molecule, the “Relative Activity of GLA Variants After No Challenge (NC)” value in data set [2] was “+ (+ = 1.5 to 5 relative activity over Rd3BB (SEQ ID NO: 13))”. For the same molecule, the “Relative Activity … at pH 3.7” value in data set [3] is reported as “+ (+ = 1.5 to 5 relative activity over Rd3BB (SEQ ID NO: 13))”.

B10: 571 (protein)
chain: B1 chain with N305K, E348N
modifications: Synthetic Polypeptide sequence of Variant No. 571 of mature Human GLA
Take B10: the “Relative Activity … at pH 9.7” value in data set [1] is “++ (++ = >5 to 10 relative activity over Rd3BB (SEQ ID NO: 13))”. In addition, the “Relative Activity of GLA Variants After No Challenge (NC)” value in data set [2] is listed as “+ (+ = 1.5 to 5 relative activity over Rd3BB (SEQ ID NO: 13))”. In addition, the “Relative Activity … at pH 3.7” value in data set [3] is “+ (+ = 1.5 to 5 relative activity over Rd3BB (SEQ ID NO: 13))”.

B11: 573 (protein)
chain: B1 chain with S314A, E348N
modifications: Synthetic Polypeptide sequence of Variant No. 573 of mature Human GLA
For B11, the “Relative Activity … at pH 9.7” value in data set [1] was “++ (++ = >5 to 10 relative activity over Rd3BB (SEQ ID NO: 13))”. In addition, the “Relative Activity of GLA Variants After No Challenge (NC)” value in data set [2] was “+ (+ = 1.5 to 5 relative activity over Rd3BB (SEQ ID NO: 13))”. The “Relative Activity … at pH 3.7” value in data set [3] is “+ (+ = 1.5 to 5 relative activity over Rd3BB (SEQ ID NO: 13))”.

B12: 579 (protein)
chain: B1 chain with W246P, E348N
modifications: Synthetic Polypeptide sequence of Variant No. 579 of mature Human GLA
Regarding B12, the “Relative Activity … at pH 9.7” value in data set [1] is recorded as “++ (++ = >5 to 10 relative activity over Rd3BB (SEQ ID NO: 13))”. Besides, the “Relative Activity of GLA Variants After No Challenge (NC)” value in data set [2] is reported as “+ (+ = 1.5 to 5 relative activity over Rd3BB (SEQ ID NO: 13))”. Further, the “Relative Activity … at pH 3.7” value in data set [3] was “+++ (+++ = >10 relative activity over Rd3BB (SEQ ID NO: 13))”.

B13: 577 (protein)
chain: B1 chain with W246A, E348N
modifications: Synthetic Polypeptide sequence of Variant No. 577 of mature Human GLA
For B13, in data set [1], the “Relative Activity … at pH 9.7” value is reported as “++ (++ = >5 to 10 relative activity over Rd3BB (SEQ ID NO: 13))”. Also, in data set [2], the “Relative Activity of GLA Variants After No Challenge (NC)” value was “+ (+ = 1.5 to 5 relative activity over Rd3BB (SEQ ID NO: 13))”. Further, the “Relative Activity … at pH 3.7” value in data set [3] was “+++ (+++ = >10 relative activity over Rd3BB (SEQ ID NO: 13))”.

B14: 578 (protein)
chain: B1 chain with W246I, E348N
modifications: Synthetic Polypeptide sequence of Variant No. 578 of mature Human GLA
In the case of B14, in data set [1], the “Relative Activity … at pH 9.7” value is reported as “++ (++ = >5 to 10 relative activity over Rd3BB (SEQ ID NO: 13))”. For the same molecule, the “Relative Activity of GLA Variants After No Challenge (NC)” value in data set [2] was “+ (+ = 1.5 to 5 relative activity over Rd3BB (SEQ ID NO: 13))”. Moreover, the “Relative Activity … at pH 3.7” value in data set [3] is recorded as “+++ (+++ = >10 relative activity over Rd3BB (SEQ ID NO: 13))”.

B15: 575 (protein)
chain: B1 chain with S314N, E348N
modifications: Synthetic Polypeptide sequence of Variant No. 575 of mature Human GLA
As for B15, the “Relative Activity … at pH 9.7” value in data set [1] is on record as “++ (++ = >5 to 10 relative activity over Rd3BB (SEQ ID NO: 13))”. Further, the “Relative Activity of GLA Variants After No Challenge (NC)” value in data set [2] is “+ (+ = 1.5 to 5 relative activity over Rd3BB (SEQ ID NO: 13))”. Also, the “Relative Activity … at pH 3.7” value in data set [3] is given as “+ (+ = 1.5 to 5 relative activity over Rd3BB (SEQ ID NO: 13))”.

The values are drawn from patent US11278600B2, “Human alpha-galactosidase variants” (Codexis, Inc., priority 2014, dated 2022).
